Peptide exchange yield data for 61 molecules are collected here from US20180222961A1 (IMMATICS BIOTECHNOLOGIES, published 2018).

The target in the test is T1, HLA-B*07:02 (human).
T1 construct: also called peptide-receptive MHC molecules
Kind of test: UV-exchange b2m ELISA; exchange-yield grade. The text has this:
Candidate peptides for T cell based therapies according to the present invention were further tested for their MHC binding capacity (affinity). The individual peptide-MHC complexes were produced by UV-ligand exchange, where a UV-sensitive peptide is cleaved upon UV-irradiation, and exchanged with the peptide of interest as analyzed. Only peptide candidates that can effectively bind and stabilize the peptide-receptive MHC molecules prevent dissociation of the MHC complexes. To determine the yield of the exchange reaction, an ELISA was performed based on the detection of the light chain (β2m) of stabilized MHC complexes. The assay was performed as generally described in Rodenko et al. (Rodenko et al., 2006).
96 well MAXISorp plates (NUNC) were coated over night with 2 ug/ml streptavidin in PBS at room temperature, washed 4× and blocked for 1 h at 37° C. in 2% BSA containing blocking buffer. Refolded HLA-A*02:01/MLA-001 monomers served as standards, covering the range of 15-500 ng/ml. Peptide-MHC monomers of the UV-exchange reaction were diluted 100-fold in blocking buffer. Samples were incubated for 1 h at 37° C., washed four times, incubated with 2 ug/ml HRP conjugated anti-β2m for 1 h at 37° C., washed again and detected with TMB solution that is stopped with […]. Absorption was measured at 450 nm. Candidate peptides that show a high exchange yield (preferably higher than 50%, most preferred higher than 75%) are generally preferred for a generation and production of antibodies or fragments thereof, and/or T cell receptors or fragments thereof, as they show sufficient avidity to the MHC molecules and prevent dissociation of the MHC complexes.
Molecule SPTHVTQSL came in with a peptide exchange yield of 50 to 75%.

The molecule VPYRVVGL returned a peptide exchange yield of 20 to 50%. In turn, RPRALRDLRIL registered a peptide exchange yield of 50 to 75%. In the case of SPRENFPDTL, the peptide exchange yield was 50 to 75%. Then SPLVTSHIM, with 50 to 75%; and LPLDTSTTL, with 50 to 75%; and LPWDTSTTLF, with 50 to 75%. Then SPDPSKHLL, with 20 to 50%; and EPKTATVL, with 20 to 50%; and TPLATTQRF, with 20 to 50%.

FPAMTESGGMIL displayed a peptide exchange yield of 50 to 75%. Then VPTPVFPTM, with 20 to 50%; and MPNSAIPFSM, with 50 to 75%. For LPAGTTGSLVF the value was 50 to 75%.

Molecule LPTQTTSSL displayed a peptide exchange yield of 50 to 75%. The molecule FPFVTGSTEM came in with a peptide exchange yield of 20 to 50%. For FPMSPVTSV the value was 50 to 75%; for FPHPEMTTSM, 50 to 75%. Then HPKTESATPAAY, with 20 to 50%. For NPSSTTTEF the value was 50 to 75%; for VPSEIDAAF, 20 to 50%. In turn, TPLATTQRFTY displayed a peptide exchange yield of 20 to 50%.

The molecule NPIGDTGVKF showed a peptide exchange yield of 50 to 75%. For FPHSEMTTL the value was 50 to 75%. For FPHSEMTTV the value was 50 to 75%; for SPSTIKLTM, 50 to 75%; for MPSLSEAMTSF, 50 to 75%. Then GPRNAQRVL, with 50 to 75%.

Turning to SPSPVPTTL, the peptide exchange yield fell in the range of 50 to 75%. Then EPVTSSLPNF, with 20 to 50%; and IPRNPPPTLL, with 50 to 75%; and LPTSESLVSF, with 20 to 50%. Then NVLTSTPAF, with 20 to 50%; and KVKSDRSVF, with 10 to 20%; and LPSVSGVKTTF, with 20 to 50%.

Molecule SPAMTTPSL returned a peptide exchange yield of 50 to 75%. Then SPSVSSNTY, with 20 to 50%; and SPAEPSVYATL, with over 75%. LPLGTSMTF returned a peptide exchange yield of 50 to 75%.

On to TAKTPDATF, for which the peptide exchange yield lay within 20 to 50%. With FPFQPGSV, the peptide exchange yield is 50 to 75%.

With HPVETSSAL, the peptide exchange yield was in the range of 50 to 75%. Then HVTKTQATF, with 20 to 50%; and FPHSEMTTVM, with 50 to 75%; and SPVPVTSLF, with 50 to 75%. Then FPNRLNLEA, with 50 to 75%; and FPYSEVTTL, with 50 to 75%; and VPDQPHPEI, with 50 to 75%. For LYVDGFTHW the value was 20 to 50%; for SPLPVTSLI, 50 to 75%. SPLPVTSLL gave a peptide exchange yield of 50 to 75%. For LPYFREFSM the value was 50 to 75%; for SPAETSTNM, 50 to 75%; for RPMPNLRSV, 50 to 75%.

Turning to MPLTTGSQGM, the peptide exchange yield is 20 to 50%.

As to PGGTRQSL, the peptide exchange yield was 10 to 20%. For HPDPVGPGL the value was 20 to 50%; for LPEISTRTM, 20 to 50%; for SPNEFYFTV, 50 to 75%. In the case of SPMDTFLLI, the peptide exchange yield fell in the range of 20 to 50%. In turn, TPSVVTEGF showed a peptide exchange yield of 20 to 50%.
